From patent publication US20220380456A1 (UNITED KINGDOM RESEARCH AND INNOVATION, published 2022)

T1: His6-TEV-MSP1D1 (CA15914) (human Apo A-I derived, engineered, biotinylated with EZ-link NHS-Biotin for the BLI experiment only)
T1 construct: Membrane scaffold protein; The entry holds the 6xHis tag, the TEV cleavage site and MSP1D1; Tested in Apo-state (lipid free) and in Nanodisc-state (POPC nanodisc, two MSP1D1 per nanodisc)
T1 chain: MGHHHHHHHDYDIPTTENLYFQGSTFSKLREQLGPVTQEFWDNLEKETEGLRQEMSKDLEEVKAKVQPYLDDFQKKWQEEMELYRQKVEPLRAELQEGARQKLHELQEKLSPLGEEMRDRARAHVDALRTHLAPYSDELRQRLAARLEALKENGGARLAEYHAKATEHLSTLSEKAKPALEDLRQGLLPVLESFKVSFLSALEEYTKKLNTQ

T2: MSP1E3D1 (human Apo A-I derived, engineered)
T2 construct: also called MSP1E1D3 MSP variant
T2 chain: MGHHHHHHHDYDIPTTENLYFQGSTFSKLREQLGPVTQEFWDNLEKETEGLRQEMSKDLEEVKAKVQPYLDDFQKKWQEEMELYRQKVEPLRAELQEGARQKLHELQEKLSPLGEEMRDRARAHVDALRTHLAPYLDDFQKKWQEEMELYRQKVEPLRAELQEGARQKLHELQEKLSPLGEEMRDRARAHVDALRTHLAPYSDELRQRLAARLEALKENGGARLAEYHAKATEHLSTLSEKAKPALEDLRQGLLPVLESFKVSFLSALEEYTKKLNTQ


What was measured:
[1] = target: T3, His6-TEV-MSP2N2 (CA15915) (human Apo A-I derived, engineered, UniProt P02647 79-267, limits assumed); test: ELISA, periplasmic extract on coated MSP (1 µg/mL in 100 µL, Apo- and Nanodisc-state), EPEA-tag detection, OD405 after overnight
T3 construct: Membrane scaffold protein; The entry holds the 6xHis tag, the TEV cleavage site and MSP2N2; Tested in Apo-state, in Nanodisc-state, and as the belt of nanodiscs loaded with GABAAR-β3
Procedure: (§1) Nanobodies were detected after 1 h (FIG. 2A) and overnight (FIG. 2B) subsequent incubation with a biotinylated CaptureSelect antibody and developed with a Streptavidin Alkaline Phosphatase conjugate.

[2] = target: T1, His6-TEV-MSP1D1 (CA15914); test: as above
Procedure: as §1

[3] = target: T3, His6-TEV-MSP2N2 (CA15915); test: ELISA, periplasmic extract on coated MSP (1 µg/mL in 100 µL, Apo- and Nanodisc-state), EPEA-tag detection, OD405 after 1 h
Procedure: as §1

[4] = target: T1, His6-TEV-MSP1D1 (CA15914); test: as above
Procedure: as §1

[5] = target: T3, His6-TEV-MSP2N2 (CA15915); test: ELISA, purified MegaBody on coated MSP (Apo- or Nanodisc-state) vs non-coated wells, A405
[6] = target: T1, His6-TEV-MSP1D1 (CA15914); test: as above
[7] = target: T3, His6-TEV-MSP2N2 (CA15915); test: ELISA, purified MegaBody 200 nM on coated MSP (1 µg/mL in 100 µL, Apo- and Nanodisc-state), EPEA-tag detection, OD405 after 1 h
[8] = target: T1, His6-TEV-MSP1D1 (CA15914); test: as above
MSP1E3D1 = target: T2, MSP1E3D1; test: ELISA on coated MSP variants, n=3

Binder	binding result [3]	binding result [4]	other results
MP1522_B7 Nanobody (CA15886) (VHH, Entry includes 6xHis and EPEA tags; tested as periplasmic extract) VHH: QVQLVESGGGLVQAGGSLRLSCAASGRSFSSYGMGWFRQAPGKEREFAAGITGTAGITYYTDSVKGRFTISRDNAKNTVYLQMNNLKPEDTAVYYCAAGLTSYAGRGAAGYDYWGQGTQVTVSS	–	–	binding result [1]: binds; binding result [2]: binds
MP1521_E1 Nanobody (CA15896) (VHH, Entry includes 6xHis and EPEA tags; tested as periplasmic extract) VHH: QVQLVESGGGLVQPGGSLRLSCAASGTITRSPTMSWARQAPGRQREWVTSILGTGRTDYADSVKGRFTISRDNANNTVYLQMNNLKPEDSAVYYCYTVLNGRPSWGQGTQVTVSS	binds	binds	–
MP1522_A12 Nanobody (CA15885) (VHH, Entry includes 6xHis and EPEA tags; tested as periplasmic extract) VHH: QVQLVESGGGLVQAGGSLRLSCAASGRTFSSYNMAWFRQVPGKEREFVASIARTGSGTYYRDSVKGRFTISRDNAKNTVYLQMNSLKPQDTAVYYCTAGGSLATISDYWGQGTQVTVSS	–	–	binding result [1]: binds; binding result [2]: binds
MP1521_E4 Nanobody (CA15889) (VHH, Entry includes 6xHis and EPEA tags; tested as periplasmic extract) VHH: QVQLVESGGGLVQAGGSLRLSCAASGRTFGSTFMGWFRQAPGKERDFVASITWNRGLTTYADSVKGRFTISRDSAKNTVDLQMNNLKPEDTAVYYCVLGMGTSFASWGQGTQVTVSS	binds	binds	–
MP1521_F3 Nanobody (CA15894) (VHH, Entry includes 6xHis and EPEA tags; tested as periplasmic extract; also called Nb F3) VHH: QVQLVESGGGLVQPGGSLRLSCAASGSGFGPNVMGWYRQAPGKRRELVATINRIGNINYGDSVKGRFTLSREIAVNTVYLQMNSLKPEDAANYYCYAAKYGVDYWGKGTQVTVSS	binds	binds	–
MP1521_B4 Nanobody (CA15893) (VHH, Entry includes 6xHis and EPEA tags; tested as periplasmic extract) VHH: QVQLVESGGGLVQPGGSLRLSCAASKSFFNIYDLAWYRQAPGKQRELVASITKVGSTNYADSVKGRFTTSRDNAKKTVYLQMNSLKPEDTAVYYCNLVSPGGVYNYWGQGTQVTVSS	binds	binds	–
MP1521_B9 Nanobody (CA15883) (VHH, Entry includes 6xHis and EPEA tags; tested as periplasmic extract) VHH: QVQLVESGGGLVQAGGSLRLSCAASGRTLCSIPMGWFRQAPGKEREFVAAIRWSGGSTYYADSVKGRFSISKDNAKNTVYLQMNNLKPEDTATYYCASAAPYSSWSRGLEYDYWGQGTQVTVSS	binds	binds	–
MbNbE1^c7HopQ MegaBody (CA15909) (other, MegaBody: c7HopQ scaffold inserted in the first β-turn of Nanobody MP1521_E1; Entry includes 6xHis and EPEA tags) QVQLVESGGGLVQTKTTTSVIDTTNDAQNLLTQAQTIVNTLKDYCPILIAKSSSSNGGTNNANTPSWQTAGGGKNSCATFGAEFSAASDMINNAQKIVQETQQLSANQPKNITQPHNLNLNSPSSLTALAQKMLKNAQSQAEILKLANQVESDFNKLSSGHLKDYIGKCDASAISSANMTMQNQKNNWGNGCAGVEETQSLLKTSAADFNNQTPQINQAQNLANTLIQELGNNTYEQLSRLLTNDNGTNSKTSAQAINQAVNNLNERAKTLAGGTTNSPAYQATLLALRSVLGLWNSMGYAVICGGYTKSPGENNQKDFHYTDENGNGTTINCGGSTNSNGTHSYNGTNTLKADKNVSLSIEQYEKIHEAYQILSKALKQAGLAPLNSKGEKLEAHVTTSKYGSLRLSCAASGTITRSPTMSWARQAPGRQREWVTSILGTGRTDYADSVKGRFTISRDNANNTVYLQMNNLKPEDSAVYYCYTVLNGRPSWGQGTQVTVSSHHHHHHEPEA	–	–	fold ELISA signal over no MSP [5]: ≥ 4 fold; fold ELISA signal over no MSP [6]: ≥ 4 fold
MP1522_A5 Nanobody (CA15892) (VHH, Entry includes 6xHis and EPEA tags; tested as periplasmic extract) VHH: QVQLVESGGGLVQPGGSLRLSCAASGFAFSNSYMSWVRQAPGKGPEWVSSISPSAWIITHGDSVKGRFTISRDNAKNTLYLQMNHLKPEDAALYYCARRQGYDGYVPSRDYWGQGTQVTVSS	binds	binds	–
MbNbB1^c7HopQ MegaBody (CA15908) (other, MegaBody: c7HopQ scaffold inserted in the first β-turn of Nanobody MP1521_B1; Entry includes 6xHis and EPEA tags) QVQLVESGGGLVQTKTTTSVIDTTNDAQNLLTQAQTIVNTLKDYCPILIAKSSSSNGGTNNANTPSWQTAGGGKNSCATFGAEFSAASDMINNAQKIVQETQQLSANQPKNITQPHNLNLNSPSSLTALAQKMLKNAQSQAEILKLANQVESDFNKLSSGHLKDYIGKCDASAISSANMTMQNQKNNWGNGCAGVEETQSLLKTSAADFNNQTPQINQAQNLANTLIQELGNNTYEQLSRLLTNDNGTNSKTSAQAINQAVNNLNERAKTLAGGTTNSPAYQATLLALRSVLGLWNSMGYAVICGGYTKSPGENNQKDFHYTDENGNGTTINCGGSTNSNGTHSYNGTNTLKADKNVSLSIEQYEKIHEAYQILSKALKQAGLAPLNSKGEKLEAHVTTSKYGSLRLSCTASGFSLSSSYMDWVRQAPGKGIEWVSTISPGGRITYAVSVEGRFTLSRDNAKNTLSLQMNELKPEDTAVYYCRRLGEKGQGTQVTVSSHHHHHHEPEA	–	–	fold ELISA signal over no MSP [5]: ≥ 4 fold; fold ELISA signal over no MSP [6]: ≥ 4 fold
MP1521_H5 Nanobody (CA15890) (VHH, Entry includes 6xHis and EPEA tags; tested as periplasmic extract) VHH: QVQLVESGGGLVQPGGSLKLSCAASGFTFSTYSMSWVRQAPGKGLEWVSRILTDGGTTSYPDSVKGRFTISRDNAKNTLYLQMNNLKPEDTAVYYCARGWPSDGYSGGYRGQGTQVTVSS	binds	binds	–
MP1522_C10 Nanobody (CA15891) (VHH, Entry includes 6xHis and EPEA tags; tested as periplasmic extract) VHH: QVQLVESGGGLVQAGGSLRLACAASGRTSGSYAIGWFRQAPGKEREFAAAISFTAGVTYYSNSVKGRFTISRDSAKNTAYLQMNTLKPEDTAVYYCATLPSLVLILTAKPNIGYWGQGTQVTVSS	binds	binds	–
MP1521_B1 Nanobody (CA15895) (VHH, Entry includes 6xHis and EPEA tags; tested as periplasmic extract) VHH: QVQLVESGGGLVQPGGSLRLSCTASGFSLSSSYMDWVRQAPGKGIEWVSTISPGGRITYAVSVEGRFTLSRDNAKNTLSLQMNELKPEDTAVYYCRRLGEKGQGTQVTVSS	binds	binds	–
MegaBody MbNb25^c7HopQ against GABAAR-β3 (other, MegaBody derived from Nb25 with the c7HopQ scaffold) QVQLVESGGGLVQTKTTTSVIDTTNDAQNLLTQAQTIVNTLKDYCPILIAKSSSSNGGTNNANTPSWQTAGGGKNSCATFGAEFSAASDMINNAQKIVQETQQLSANQPKNITQPHNLNLNSPSSLTALAQKMLKNAQSQAEILKLANQVESDFNKLSSGHLKDYIGKCDASAISSANMTMQNQKNNWGNGCAGVEETQSLLKTSAADFNNQTPQINQAQNLANTLIQELGNNTYEQLSRLLTNDNGTNSKTSAQAINQAVNNLNERAKTLAGGTTNSPAYQATLLALRSVLGLWNSMGYAVICGGYTKSPGENNQKDFHYTDENGNGTTINCGGSTNSNGTHSYNGTNTLKADKNVSLSIEQYEKIHEAYQILSKALKQAGLAPLNSKGEKLEAHVTTSKYGSLRLSCAASGHTFNYPIMGWFRQAPGKEREFVGAISWSGGSTSYADSVKDRFTISRDNAKNTVYLEMNNLKPEDTAVYYCAAKGRYSGGLYYPTNYDYWGQGTQVTVSSHHHHHHEPEA	–	–	binding result [7]: no binding (tested: 200 nM); binding result [8]: no binding (tested: 200 nM); binding result (MSP1E3D1): no binding
MP1522_B9 Nanobody (CA15888) (VHH, Entry includes 6xHis and EPEA tags; tested as periplasmic extract) VHH: QVQLVESGGGLVQAGGSLRLSCVRSARTFGSVAMGWFRQAPGKEREFVTAIDWSGSNTLYADSVKGRFTISRDNAKNTVYLQMNSLKPDDTAVYYCAASRRVVVTTSDFDSWGQGTQVTVSS	binds	binds	–
MP1521_G9 Nanobody (CA15884) (VHH, Entry includes 6xHis and EPEA tags; tested as periplasmic extract) VHH: QVQLVESGGGSVQAGGSLRLSCAASGRTFSTYRMGWFRQAPGKEREFVAGWNSINIYYADSVKGRFTISGDNAKSTVYLQMNSLKPEDTAVYYCAARGLGQTEYNYWGQGTQVTVSS	–	binds	binding result [1]: binds
